Test: yeast display, Sf9 membrane polyspecificity reagent, FACS + sequencing; frameworks hold sequencing errors
In short: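 Galactose-induced (36–48 hours) yeast carrying a synthetic nanobody display library were exposed to 10% biotinylated, detergent-solubilized Sf9 membrane reagent at 4 °C for 1 hour. FACS followed streptavidin microbead enrichment, using low and high (top ~1%) gates for expression (anti-HA) and reagent binding (streptavidin). Colony PCR, MiSeq 2 × 250 sequencing and CDR-length filtering followed. Labels for polyreactivity reflect the gate of origin.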

| Sequence | polyreactivity (PSR sort gate) |
| --- | --- |
| QVQHVESGGGLVQAGGSLRLSCAASGNIFDRNAMGWDRQARGKERELVAAISRSGGRTYYADSVKGRFTISRDHAKNTVYLQMNSLKPEDTAVYYCNRRYRKYSSAKYDYWGQGTQVTVSS | high polyreactivity |
| QVQLVESGGGLVQAGGSLRLSCAASGLTLYRYALGWYRQAPGKERELVAAISWGGGSTYYADSVKGRFTISRDNAKNTVYLQMNSLKPEDTAVYYCAAGRLLYIPRYYYWGQGTQVTVSS | high polyreactivity |
| QVQHVESGGGLVQAGGSLRLSCAASGYIFPDYAMGWYRLAPGKEREMVAAITSSGGITYYADSVKGRFTISRDNAKNTVYLQMNCLKPEDSAVYYCAKGYPWRYSIMDYWGQGTQVTVSS | low polyreactivity |
| QVQLVESGGGLVQAGGSLRLSCAASGSIFGLYAMGWYRQAPGKERELVAAISTSSGRTYYADSVKGRFTISRDNAKNTVYLQMNSLKPEDTAVYYCNARVYVTSGFRYDYWGQGTQVTVSS | high polyreactivity |
| QVQLVESGGGLVQAGGSLRLSCAASGIIFGWYAMGWYRQAPGTERELVADISSDDSTYYADSVKGRFTISRDNAKNTVYLQMNSLKPEDTAVYDCAAETEYYSYRFDYWGQGTQVTVSS | high polyreactivity |
| QVQLVESGGGLVQAGGSLRLSCAASGITFYVNAMGWYRQAPGKERELVAAINSGSTNYADSVKGRFTISRDNAKNTVYLQMNSLKPEDTAVYYCAVDVYWEFSPEYDYWGQGTQVTVSS | low polyreactivity |
| QVQLVESGGGLVQAGGSLRLSCAASGSIFAKYAMGWYRQAPGKERELVAAITYSSSSTYYADSVKGRFTISRDNAKNTVYLQMNSLKPEDTAVYYCAARKKARGHGGNDYWGQGTLVTVSS | high polyreactivity |
| QVQLVESGGGLVQAGGSLRLSCAASGSTFSTNAMGWYRQAPGKERELVAAISRSGGRTYYADSVKGRFTISRDNAKNTVYLQMNSLKPEDTAVYYCNAVRRFASPSPHYYWGQGTQVTVSS | high polyreactivity |
| QVQLVESGGGLVQAGGSLRLRCAASGSIFVSNTMGWYRQAPGKEREMVASIRETAGSTNYADSVKGRFTISRDYAKNTVYLQMNSLKPEDTEVYYCAARYSPTRYHYGYWGQGTQVTVSS | low polyreactivity |
| QVQLVESGGGLVQAGGSLRLSCAASGSIFGYYAMGWYRQAPGKERELVAAISGIGGSTYYADSVKGRFTISRDNAKNTVYLQMNSLKPEDTAVYYCAKARPHVGGGGDYWGQGTQVTVSS | low polyreactivity |
| QVQLVESGGGLVQAGGSLRLSCAASGSIFSVYAMGWYRQAPGKERELVATISGSAGRTYYADSVKGRFTISRDNAKNTVYLQMNSLKPEDTAVYYCAARWYKEYYWGQRTQVTVSS | high polyreactivity |
| QVQLVESGVGLLQAGGSLRLSCADSGRIISGNAMVWYRQAPGKEREMVAAISSGGSTYYADSVKGRFTISRDNAMNTVYLQMNSLKPEATAVFYCNKRRGRKWPGNFSVVKLLMGSWGQGTQVTVSS | low polyreactivity |
| QVQLVESGGGLVQAGGSLRLSCAASGLTFYDYAMGWYRQAPGKERELVADIDFNGGSTSYADSVKGRFTISRDNAKNTVYLQMNSLKREDTAVYYCNTRDRGDVVTGLDYWGQGTQVTVSS | low polyreactivity |
| QVQIVESGGGLVQAGGSLRLRCAASGITFSIYAMGWYRQAPGKERELVAAIDSGGGTNYADSVKGRFTISLDNAKNTVYLQMNSLKAEDTAVYYCAADFLKVDWYDYWGQGTQVTVSS | low polyreactivity |
| QVQLVESGGGLVQAGGSLRLSCAASGTTFYPNAMGWYRQAPGKERELVAAISWSGGRTYYADSVKGRFTISRDNAKNTVYLQMNSLKPEDTAVYYCNRYHRTSWRAKYDYWGQGTQVTVSS | high polyreactivity |
| QVQLVESGGGLVQAGGSLRLSCSASGITFTSYAMGWYRQAPGKERELVASIDSDDSTNYADSVKGRFTISLDNAKNTVYLQMNSLKPEDTAVYYCNADYLTVSWSIPEHVTVRLMYYWGQGTQVTVSS | low polyreactivity |
| QVQHVESGVGLVQPVGSLRLSCAASGSTIVSNAMGWERQAPGKERELVAAISTSGGTTDYPDSVKGRFTISRHNAKNTVYLQMNCLKPEDTAVYYCAARHYYVKHSYDYWGQGTQVTVSS | low polyreactivity |
| QVQLVESGGGLVQAVGSLRLSCAASGRTFYGYALGWYRQQPGKVSELVAAISADTGRTRYADSVKGRFTISRDNAKNTVYLQMICLNPEDTAVYYCATRLFPQSRYYYWGQGTQVTVSS | high polyreactivity |
| QVQLVESGRGLVQAGGSLRLSCAASGFTQPANGMGWYRQAPGIERELVAAISFIAGSTYYADSVKGRFTISRDNAKNTVYLQMNSLKPEDTAVYYCATLFPPSTIYDYWGQGTQVTVSS | low polyreactivity |
| QVQLVESGGGLVQAGGRLRLSCAASGFTFYNYAMGWYRQAPGKERELVAAISWSGGSTHYADSVKGRFTISRDNAKNTVFLQMNSLKPEDTAVYYCAKVGVLGYYTYYYWGQGTQVTVSS | low polyreactivity |
| QVQLVESGGGLVQAGGSLRLSCAASGITFSWYVMGWSRQAPGKERDLVATITNRGGSTYYADSVKGRFTISRDNAKNTVYLQMNSLKPEDTAVYYCAARKKGSRVGYDYWGQGTQVTVSS | high polyreactivity |
| QVQLVESGGGLVQAGGSLRLSCAASGRTFRRYAMGWYRQAPGKERELVAAISSSTGRTYYADSVKGRFTISRDTAKNTVYLQMNSLKPEDTAVYYCNAVHRYERDYWGQGTQVTVSS | high polyreactivity |

| Sequence | polyreactivity (PSR sort gate) |
| --- | --- |
| QVQLVESGGGLVQAGGSLRLSCAASGFTFGWNAMGWYRQAPGKERELVAAITSGGITNYADSVKGRFTISRDNAKNTVYLQMNSLKPEDTAVYYCNARPTSRRSWYYWKGYDYWGQGTQVTVSS | high polyreactivity |
| QVQLVESGGGLVQAGGSLRLSCAASGFTFKYYAMGWYRQAPGKERELVATITRSGGNTYYADSVKGRFTISRDNAKNTVYLQMNSLKPEDTAVYYCNTRRPGKYDYWGQGTQVTVSS | high polyreactivity |
| QVQLVESGGGLVQAGGSRRLSCAASGFFFRTYSMGWYRQAPGTERELVAAISSSSGSTYYADSVKGRFTISRDNAKNTVYLQMNSLKPEDTAVYYCAAYSLSQKPRGYNYWGQGTQVTVSS | high polyreactivity |
| QVQLVESGGGLVQAGGSLRLSCAASGFTFDYNAMGWYRQAPGKDRELVAVISSSGSRTYYADSVKGRFTISRDNAKNTVYLQMNSLKPEDTAVYYCNSGRTYRRLGDYWGQGTQVTVSS | high polyreactivity |
| QVQLEESGGGLVQAGGSLRLSCASYGSIFGHYAMGLYRQAPGKARELVAGISKSGGRTYDADSVKGRFTISRDNAKNTVFLQMNSLKPEDTAVYYCNALVTRYQSLDRLGDYWGQGTQVTVSS | high polyreactivity |
| QVQLVESGGGLVQAGGSLRLSCAASGIIFGDNAMGWYRQATGKERELVAAIDYGDGSTYYADSVKGRFTISRDNENNTVYLQMNRLKPEDTAVYYCNADDGGPGVVLPTKEYDYWGQGTQVTVSS | low polyreactivity |
| QVQLVESGAGLVQAGGSLRLSCAPSGRIFDKYAMGWYRQAPGTERELVAAIDWSGGSTYYADSVKGRFTISRDNAKNTVYLQMNCLKPEDTAVYYCAAYWYYEDGQSEARLYGYDYWGQGTQVTVSS | low polyreactivity |
| QVQLVESAARLVQAGGSLRLSCAPSGNIFKGYAMGCYRQAPGKHRELVAAITSGDSTNYADSVKGRFTISRDNAKNTVYLQMNSLKPEDTGVYYCNARYSWWRSRDGSSHRPDGYWGQGTQVTVSS | high polyreactivity |
| QVQLVESGGGLVQAGGSLRLSCAASGRIFYYNTMGWYRQSPGKERELVAAISSTASTTYADSVKGRFTISRENAKNTVYLKMNILKPEDTAVYYCAAAYSVRGRTYDSWGQGTQVTVSS | high polyreactivity |
| QVQLVESGGGLVQAGGSLRLSCAASGSTFGTYAMGWYRQAPGKERELVATITRRGGRTYYADSVKGRFTISRDNAKNTVYLQMNSLKPEDTAVYYCNAVVRQQGAYDYWGQGTQVTVSS | high polyreactivity |
| QVQLVESGGGLVQAGGSLRLSCAASGYTFTIYAMGWYRQAPGKERELVASISIDGSTYYADSVKGRFTISRDNAKNTVYLQMNSLKPEDTAVYYCAADYYYYTPGFDYWGQGTQVTVSS | low polyreactivity |
| QVQLVESGGGLVQAGGSLRLSCAASGFTFRGYAMGWYRQAPGKERELVAAISRGGNTKYADSVKGRFTISRDNAKNTVYLQMNSLKPEDTAVYYCASYYFSSSHRYGYWGQGTQVTVSS | high polyreactivity |
| QVQLVESGGGLVQAGGSLRLSCAASGFIFGYYAMGWYRQAPGKERELVAAITRSGGSTRYADSVKGRFTISRDKAKNTVYLQMNSLKPEDTAVYYCNAYAPRQLYGYDYWGQGTQVTVSS | high polyreactivity |
| QVQLVESGGGLVQAGGSLRISCAASGRTFGANAMGWYRQAPGKERELVAGITSSGGSTSYADSVKGRFTISRDNAKNTVYLQMNSLKPEDTAVYYCAKDVYQHIFDVILGGYDSWGLGTQVTVSS | low polyreactivity |
| QVQLVESGGGLVQAGGILSLSCAASGSTFVGNAMGWYRPAPGKERELVATISNSGGRTYYADSVKGRFTISRDNAKNTVYLQMNSLKPEETAVYYCAADPPAFGPGYSFDYWGHGTQVTVSS | low polyreactivity |
| QVQLVESGGGLVQAGVSLRLSCAASGSIFYAYAMGWYRQAPGKERELVAVINSGGSTYYADSVKGRFRISSEYAKNTVYLQMNSLKPEDTAVYYCNGTQYRGKYDYPPPGRGYYYWGQGTHVTVSS | high polyreactivity |
| QVQLVESWGGLVQAGGSLRLSCAASGSIFPWYAMGWYREAPGKERELVAAISKSGAGTYYADSVKGRFTISRDNAKNTVYLQMNSLKPEDTAVYYCNAVYRKTSYGYWGQGTQVTVSS | high polyreactivity |
| QVQLVESGGGLVQAGGSLRLSCAASGSILQDYTMGWYRQAPGKERELVAAITWNGGSTYYADSVKGRFTISRDNEKNTVYLHMTSLKPEHTAVYYCAAYCRVVPSFYYWGQGTQVTVSS | low polyreactivity |
| QVQLVESGGGLVQAGGSLRLSCAASGSTFQYYAMGWYRQAPGKERELVDAISPSVDTTFYADSVKGRFTISRDNAKNTVYLQMNSLKPEDTAVYFCAKRYVDPLGSGTLGSWGQGTQVTVSS | low polyreactivity |
| QVQLVESGGGLVQAGGSLRLSCAASGSTLITNDMGWYRQAPGKERELVATITYGTGSTYYADSVKGRFTISRDNAKNTVYLQMNSLKPEDTAVYYCNARRNYPKDSDGYDYWGQGTQVTVSS | low polyreactivity |
| QVQLVESGGGLVQAGGSLRLSCAASGRTFYIYAMGWYRQAPGKERELVAAITSVGSTNYADSVKGRFTISRDNAKNTVYLQMNSLKQEVTAVYYCAAESTEGTSGDYDYWGQGTQVTVSS | low polyreactivity |

Reference: the nanobody polyreactivity screen of Harvey et al. (2022)
